The text below walks through data of the supplement of paper PMC12042874.

± gives the uncertainty stated by the source.

This data set is described as follows: amyloid nucleation score (Sup35N fusion, yeast selection) (log enrichment); library NNK1; higher = more nucleation; inactive = no reads after selection. The procedure, abridged: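 Nucleation score: DiMSum log enrichment of output over input reads, centred on the mode score of non-aggregating sequences. Only sequences with at least 100 input reads were kept. Reads came from Illumina sequencing of plasmid inserts before and after 7 days of growth at 30°C without adenine and uracil, in psi-negative yeast expressing Sup35N fused to peptides of 20 random codons after 24 hours of induction with 100 μM copper sulfate.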
For the substance KNHYYFA, the amyloid nucleation score is -0.203 ± 0.38.

With KNRRSCIMNIGRYWRVQMVI, the amyloid nucleation score is -0.846 ± 0.68.

Consider KNVARVHMQCLPAYVLGRNH, for which the amyloid nucleation score came out at 0.018 ± 0.66.

Regarding KPMFSLGSNYKMCIYHGCFM, the amyloid nucleation score came to 8.183 ± 0.061.

KQFDTSGLNVRRSCNRSRHM: the amyloid nucleation score came to 0.301 ± 0.56.

KQRIFEMLPWGPRPLYPVWG gave an amyloid nucleation score of 0.405 ± 0.43.

Turning to KRERGKISIEEAMRQAGQRS, the amyloid nucleation score was 0.578 ± 0.7.

Turning to KRNLRVHSTGIFRYRIWKA, the amyloid nucleation score is -0.047 ± 0.48.

Turning to KRTLGTRGRIQVKSCPVGEL, the amyloid nucleation score was -0.467 ± 0.35.

KRVCLFLGSWNRHHLLGLFG yielded an amyloid nucleation score of 1.41 ± 0.84.

In turn, KRVLCSTCIHRLCPKSGGDC registered an amyloid nucleation score of 1.33 ± 0.68.

The substance KRYDLRLKMMTTPI came in with an amyloid nucleation score of 1.29 ± 0.41.

KSAYVANRGCRRLYGVHNKM returned an amyloid nucleation score of -0.647 ± 0.71.

Substance KSFACYNKDQ returned an amyloid nucleation score of 0.423 ± 0.99.

KSKLMNKQFSRLTLVSTESR: the amyloid nucleation score came out at 3.86 ± 0.13.

For the substance KSLVVACDVYSNALLRVMFR, the amyloid nucleation score is -0.291 ± 0.26.

Substance KSPRFASTYPLSSSYSLRVI displayed an amyloid nucleation score of -0.327 ± 0.28.

The substance KSRSRLPCTRSHTIEFVRMR yielded an amyloid nucleation score of 0.831 ± 0.56.

Regarding KSSWSSAS, the amyloid nucleation score was -0.076 ± 0.3.

With KTCSQSEKM, the amyloid nucleation score is -0.562 ± 0.3.

As for KTSNKWMIKRNYRAYGHCSV, the amyloid nucleation score was -0.357 ± 0.37.

In turn, KVCFPY came in with an amyloid nucleation score of -1.03 ± 0.4.

The substance KVDLLA showed an amyloid nucleation score of -0.13 ± 0.56.

As to KVGYLYEAIGGKDDL, the amyloid nucleation score is -0.605 ± 1.1.

On to KVHPYEMDENYNPSRCYSSS, for which the amyloid nucleation score was -0.049 ± 0.48.

In turn, KVLLR came in with an amyloid nucleation score of 0.725 ± 0.36.

Substance KVNFSSSLGCVN displayed an amyloid nucleation score of 0.713 ± 0.85.

For the substance KVSENLPRMPANLLTI, the amyloid nucleation score came to 0.09 ± 0.44.

As to KVSPIMDEN, the amyloid nucleation score is 0.547 ± 0.37.

The substance KVSYCSSGYLTSLTWRFLLI registered an amyloid nucleation score of 0.888 ± 0.28.

Regarding KVSYRMRASPRSKILVIRKS, the amyloid nucleation score is 0.43 ± 0.72.

KVYIIFVRGEDAFKLRGAAN showed an amyloid nucleation score of -0.529 ± 1.5.

On to KWGLGFFDWKMKYHFRCYKC, for which the amyloid nucleation score came out at 0.033 ± 0.56.

Substance KWIRRRTDIFELSRLVWMGW displayed an amyloid nucleation score of -0.694 ± 0.58.

Consider KWVDEECFDFMKGGF, for which the amyloid nucleation score was -0.756 ± 0.73.

In turn, KYFYMMTAYRRWRRDPYLGG registered an amyloid nucleation score of -0.54 ± 0.62.

In turn, KYKDFLGSISDLDWII showed an amyloid nucleation score of -0.464 ± 1.4.

KYMTDIIT had an amyloid nucleation score of 0.413 ± 0.2.

Consider KYRVSLNFRWRFRLMISHNG, for which the amyloid nucleation score is -0.002 ± 0.4.

Take KYYYWRRVPVCQKGDLF: the amyloid nucleation score was 0.095 ± 0.31.

In the case of LAAST, the amyloid nucleation score was 0.311 ± 0.4.

In turn, LAFKGAITPSDFGLNNRYRF gave an amyloid nucleation score of -0.037 ± 1.4.

On to LAGGVHLRPHERKEFLD, for which the amyloid nucleation score entry was “inactive”.

LAHVFWRIDWMDKWGYNGDA showed an amyloid nucleation score of 0.992 ± 0.26.

LALMEEPLVLDNGSLDTKLS showed an amyloid nucleation score of 0.579 ± 1.1.

As for LASGRRPSQPGVRRVAKTTG, the amyloid nucleation score amounted to 0.392 ± 0.34.

As for LATAEASRNYVGYFGWSFMN, the amyloid nucleation score was found to be 0.098 ± 1.1.

Substance LAVKEL gave an amyloid nucleation score of 0.678 ± 0.54.

In turn, LAWIGFRYRDGMKYGVHWGR came in with an amyloid nucleation score of -0.522 ± 1.2.

For the substance LAWSEYLMCLTRCHPIAV, the amyloid nucleation score is 0.414 ± 0.54.

In turn, LCAEN gave an amyloid nucleation score of 0.48 ± 0.52.

LCDFKTSEVPSEGTFWSVLA displayed an amyloid nucleation score of 0.181 ± 0.51.

For the substance LCFGYKLIAKECVCAGRTES, the amyloid nucleation score result is “inactive”.

As to LCFMILNGGRQSQAQKDSYV, the amyloid nucleation score was 0.086 ± 0.4.

LCGGWLMGAGRFDGR returned an amyloid nucleation score of 0.862 ± 0.54.

The substance LCGSVRFRTGLECKQPSSCI registered an amyloid nucleation score of -1.02 ± 2.7.

The substance LCLGHRH had an amyloid nucleation score of -0.818 ± 1.6.

As to LCNKVWFAECQIHSRQG, the amyloid nucleation score was -0.144 ± 0.83.

Substance LCRIKGHRFIQVDTGEAVWS gave an amyloid nucleation score of -0.629 ± 0.61.

Regarding LCRILGSSPVHNLWLWGHGY, the amyloid nucleation score is -0.363 ± 1.4.

Substance LCTFIVWKMPICPMWWGW had an amyloid nucleation score of 0.255 ± 0.2.

LDCINRERYIHFMR displayed an amyloid nucleation score of 1.92 ± 0.5.

Take LDHLVNDTVEILQYGAPSIH: the amyloid nucleation score was 0.733 ± 0.88.

LDIVCLPKFVVWTDTV returned an amyloid nucleation score of -0.301 ± 0.56.

In the case of LDLSNDGRFYKGREGAISCR, the amyloid nucleation score was 0.049 ± 0.31.

Take LDLVTGL: the amyloid nucleation score was 1.1 ± 0.66.

Substance LDMECYYSIYRSESNVCMWI showed an amyloid nucleation score of 1.31 ± 0.93.

In the case of LDMTTTLLVSLESDG, the amyloid nucleation score turned out to be 0.04 ± 0.73.

LDNRCKIRMVMMHSPRALRV came in with an amyloid nucleation score of 0.893 ± 0.81.

LDRTVWH had an amyloid nucleation score of 0.757 ± 0.34.

For LDRYVRFEIRS, the amyloid nucleation score was found to be 0.661 ± 0.56.

With LDVKSYAQVKRFSWSHSAFM, the amyloid nucleation score is 1.07 ± 0.4.

As to LDWSMLRTELVIGILRSGRE, the amyloid nucleation score was determined as 0.248 ± 0.52.

The substance LEAKSAGRVACQHGVALRVG yielded an amyloid nucleation score of 0.674 ± 0.47.

For LECSNSNLWCTPN, the amyloid nucleation score worked out at 0.712 ± 0.69.

In turn, LEMCLQDVIDGSGQGQNEWG registered an amyloid nucleation score of -0.074 ± 0.7.

On to LEQFMTRYRSDIVYCCDSGS, for which the amyloid nucleation score result is “inactive”.

LESHSNTINIGCKNFGCNRG yielded an amyloid nucleation score of 5.38 ± 0.073.

In turn, LESQNHTFLRFIPKAALRIL yielded an amyloid nucleation score of 0.067 ± 0.47.

Regarding LETRLVYLWENLPLAQTNVA, the amyloid nucleation score stood at 0.238 ± 0.48.

On to LFALQGHGILSVHSFVRHWG, for which the amyloid nucleation score was found to be 0.165 ± 1.1.

With LFCHPSFYINGMWSLGGSGG, the amyloid nucleation score is -0.578 ± 0.66.

On to LFCIERWMSNCFG, for which the amyloid nucleation score was 0.112 ± 0.75.

The substance LFCKSPCYFVMLADKMHIWG displayed an amyloid nucleation score of 5.07 ± 0.11.

The substance LFCTTSVDNKGPVRLPLVCV showed an amyloid nucleation score of -0.282 ± 1.7.

As for LFDWWCFEKYLICRVGSLTF, the amyloid nucleation score was -0.091 ± 0.51.

Consider LFFCGLGERG, for which the amyloid nucleation score result is “inactive”.

In the case of LFFVSRG, the amyloid nucleation score was -0.465 ± 1.6.

With LFGDLTNFQTFYT, the amyloid nucleation score entry was “inactive”.

For the substance LFIVSNFLWLIPKWTNSAKF, the amyloid nucleation score is -1.66 ± 1.4.

The substance LFIYDLQLRHDYHQGYELES had an amyloid nucleation score of 0.544 ± 0.9.

For the substance LFKNFEWMYSTMTHLSWIWL, the amyloid nucleation score is -0.335 ± 0.21.

LFKSPWGDDHSIST gave an amyloid nucleation score of 0.434 ± 0.29.

Turning to LFLFRSH, the amyloid nucleation score came to 5.445 ± 0.048.

As to LFLNMNPVLDTIIPFGWSSV, the amyloid nucleation score is -0.128 ± 0.56.

For the substance LFLNTNSRKYTKMDTILILS, the amyloid nucleation score was -0.359 ± 0.4.

Turning to LFLSWDSYPSLSKRTV, the amyloid nucleation score was determined as 0.281 ± 0.42.

Substance LFNSYIAVGVKKTSSEVMQR gave an amyloid nucleation score of 0.385 ± 0.55.

LFPSTTMLLFRLNQGGFDEI came in with an amyloid nucleation score of 0.407 ± 0.58.

LFRFDYCLPGRFNRFWPDIS had an amyloid nucleation score of 1.03 ± 0.18.

LFRLYTEITGRMRVTKVKVV had an amyloid nucleation score of 0.641 ± 0.69.

For LFRSSKSIRSLLSFCSICMF, the amyloid nucleation score amounted to 5.33 ± 0.076.

Substance LFRYTVRQGWFKRETHWVPM yielded an amyloid nucleation score of 0.296 ± 0.53.

The substance LFSSLRRGRHSLPIPLPMNL displayed an amyloid nucleation score of 0.013 ± 0.36.

For the substance LFTFIGAVCFILNIACSLFF, the amyloid nucleation score stood at 1.05 ± 0.58.

Substance LFTVKKVFQLLYL displayed an amyloid nucleation score of 0.936 ± 0.7.

The substance LFVDPL came in with an amyloid nucleation score of 1.06 ± 0.88.

In the case of LFVFPVESCMCMQLRVAQSK, the amyloid nucleation score came to 0.642 ± 0.62.

For the substance LFWCVSVNRDIKIQCDRTLF, the amyloid nucleation score is 1.13 ± 0.51.

With LFWLKKNILLDRIHLP, the amyloid nucleation score is -0.172 ± 0.4.

LFYFTRLFINRYMNM: the amyloid nucleation score was -0.316 ± 0.5.

As for LGCVVHDCYKVVDGIMSYML, the amyloid nucleation score was found to be 1.69 ± 0.41.

Take LGECFTGTDRLLEGLVSCES: the amyloid nucleation score came out at 0.776 ± 0.88.

Take LGFSVCSRLVFIWEYASFGK: the amyloid nucleation score is 0.459 ± 0.46.

As to LGFTRIGPGALTAKA, the amyloid nucleation score is -0.72 ± 1.2.

In the case of LGFVRLGGSCHITIDSGACV, the amyloid nucleation score was -0.386 ± 1.

Turning to LGGAWLSNEDMVGYKNLH, the amyloid nucleation score amounted to 1.44 ± 0.41.

LGHAKRGDWSWLKFSCDSGE gave an amyloid nucleation score of -0.167 ± 0.48.

LGIAGER came in with an amyloid nucleation score of 0.294 ± 0.33.

LGIARDSWGKIKQFSAVDSC had an amyloid nucleation score of 0.159 ± 0.26.

The substance LGLDTEVVGPGPGGYHLWQK yielded an amyloid nucleation score of 0.112 ± 0.27.

For the substance LGLPSVFRRHFAFMVRMLWY, the amyloid nucleation score was found to be 0.021 ± 0.75.

For the substance LGNMHREDYGSSGSRARFKG, the amyloid nucleation score was -0.612 ± 0.74.

In the case of LGPLYQFDICGKGTGYGDHE, the amyloid nucleation score is -0.673 ± 0.71.

Turning to LGRFYTTCT, the amyloid nucleation score is -0.981 ± 1.1.

Substance LGRIDRWKDQWCSLAELKS yielded an amyloid nucleation score of -0.383 ± 1.7.

Turning to LGRLAVDHLVCRRYDSSLHN, the amyloid nucleation score is 0.089 ± 1.1.

On to LGSEAS, for which the amyloid nucleation score came out at 0.093 ± 0.2.

LGTGCA yielded an amyloid nucleation score of -0.507 ± 0.83.

The substance LGVRINGTNVLDFF came in with an amyloid nucleation score of 0.044 ± 0.27.

As for LGWNKSTAYELCFTPSSGGY, the amyloid nucleation score was determined as 2.11 ± 0.15.

In turn, LGWSGMVGFG gave an amyloid nucleation score of 0.08 ± 0.81.

In the case of LGYAYSEPPWRLMVNWSPSA, the amyloid nucleation score was 1.66 ± 0.16.

For LHCFMWFFHIDN, the amyloid nucleation score is 7.456 ± 0.057.

Substance LHRITYLCSNVYSVCGLVCA had an amyloid nucleation score of 4.35 ± 0.079.

In the case of LHSWSVAILIHYKMRD, the amyloid nucleation score was -0.084 ± 0.27.

In the case of LHWWRFFVEVTLPCLGFLLS, the amyloid nucleation score was -0.308 ± 0.76.

LIAVQWASMRQAWNIC: the amyloid nucleation score was determined as 0.616 ± 1.2.

Substance LIFLDMAVL registered an amyloid nucleation score of -0.403 ± 1.4.

Regarding LIFQVSQSIGTYSCTKSEGR, the amyloid nucleation score was found to be 0.756 ± 0.2.
